According to article PMC10419308, “Structural Insight into the Amino Acid Environment of the Two-Domain Laccase’s Trinuclear Copper Cluster” (International Journal of Molecular Sciences, 2023):
Changes are numbered by the printed parent chain. Names and notes keep the numbering of the source.

B1: SgfSL (Streptomyces griseoflavus Small Laccase) (Streptomyces griseoflavus; D268N/M199G/R240H) (protein)
chain: AGAAPAGGEVRRVTMYAERLAGGQMGYGLEKGKASIPGPLIELNEGDTLHVEFENTMDVPVSLHVHGLDYEISSDGTKQNKSHVEPGGTRTYTWRTHEPGRRADGTWRAGSAGYWHYHDHVVGTEHGTGGIRNGLYGPVIVRRKGDVLPDATHTIVFNDGTINNRPAHTGPNFEATVGDRVEIVMITHGEYYHTFHMHGHHWADNRTGMLTGPDDPSQVIDNKICGPANSFGFQIIAGEGVGAGAWMYHCHVQSHSDMGMVGLFLVKKPDGTIPGYDPQEHAH
notes: pET32-Xa/LIC, E. coli BL21(DE3)/Rosetta; N-terminal thioredoxin-His tail cut off with factor Xa; homotrimer; all variants tested here carry D268N (wild-type data copied from earlier work)
B2: SgfSL (Streptomyces griseoflavus Small Laccase) (Streptomyces griseoflavus; D268N/M199G) (protein)
chain: B1 chain with H201R
notes: as for B1
B3: SgfSL (Streptomyces griseoflavus Small Laccase) (Streptomyces griseoflavus; D268N/M199A) (protein)
chain: B1 chain with G160A, H201R
notes: as for B1

Experiments:
purified protein [1] = substrate: CCn1c(=NN=c2sc3cc(S(=O)(=O)O)ccc3n2CC)sc2cc(S(=O)(=O)O)ccc21; test: purified protein; format: biochemical, Streptomyces griseoflavus; conditions: pH 4.0, 50 mM Britton-Robinson buffer, 30 °C, co-substrate O2, table header prints unit as MM
purified protein [2] = substrate: COc1cccc(OC)c1O; test: purified protein; format: biochemical, Streptomyces griseoflavus; conditions: 30 °C, co-substrate O2, table header prints unit as MM
[3] = pH 8.5, 50 mM Britton-Robinson buffer
[4] = pH 7.5, 50 mM Britton-Robinson buffer
[5] = pH 7.0, 50 mM Britton-Robinson buffer

Row | Protein | Km (purified protein [1]) | kcat (purified protein [1]) | kcat/Km (purified protein [1]) | Km (purified protein [2]; [3]) | kcat (purified protein [2]; [3]) | kcat/Km (purified protein [2]; [3]) | Km (purified protein [2]; [4]) | kcat (purified protein [2]; [4]) | kcat/Km (purified protein [2]; [4]) | Km (purified protein [2]; [5]) | kcat (purified protein [2]; [5]) | kcat/Km (purified protein [2]; [5])
1 | B1 | 250 ± 20 µM | 38.9 ± 0.99 s⁻¹ | 156000 M⁻¹ s⁻¹ | 240 ± 30 µM | 8.19 ± 0.13 s⁻¹ | 34100 M⁻¹ s⁻¹ | – | – | – | – | – | –
2 | B2 | 220 ± 30 µM | 37.7 ± 2.41 s⁻¹ | 171000 M⁻¹ s⁻¹ | – | – | – | 290 ± 20 µM | 1.88 ± 0.05 s⁻¹ | 6490 M⁻¹ s⁻¹ | – | – | –
3 | B3 | 110 ± 30 µM | 21.4 ± 1.12 s⁻¹ | 195000 M⁻¹ s⁻¹ | – | – | – | – | – | – | 870 ± 100 µM | 0.8 ± 0.03 s⁻¹ | 920 M⁻¹ s⁻¹
